Laboratory results from the supplement of paper PMC9732359.
± gives the uncertainty stated by the source.

Assay: protein stability index of a GFP-peptide fusion (yeast GPS) (PSI 1-4); higher = more stable; sorted into four equal gates, so the index is relative within each strain
Method in brief: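 Plasmids in a pooled yeast library fused tiled 17-residue yeast protein peptides downstream of GFP and also expressed Cherry. Mid-log cultures grown without leucine were sorted into four equal gates by GFP/Cherry fluorescence ratio. Each gate's plasmids were PCR-amplified and Illumina-sequenced, and reads were matched to strains by barcodes. The protein stability index is derived by multiplying each gate's read frequency by its gate number and summing the results.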

Sequence | protein stability index (doa10∆) | protein stability index (pdr5∆) | protein stability index (san1∆) | protein stability index (ubr1∆)
QQQQQQQQRRQLTPQQQ [GAL11] | 2.764 ± 0.025 | 2.826 ± 0.025 | 2.877 ± 0.02 | 2.833 ± 0.022
GPSVESYELRNTTTYKS [SNF5] | 2.75 ± 0.1 | 2.9 ± 0.099 | 2.41 ± 0.094 | 1.99 ± 0.082
DEKLKTEKLKNDKSEVL [SRB8] | 3.09 ± 0.3 | 3.74 ± 0.21 | 3.24 ± 0.18 | 3.33 ± 0.22
PNFLIMQGKITKVLNMK [SMC2] | 2.73 ± 0.1 | 2.86 ± 0.07 | 2.85 ± 0.055 | 2.88 ± 0.063
LVEEKTPGLTFNAIDLA [RPC82] | 3.23 ± 0.12 | 3.29 ± 0.11 | 3.25 ± 0.057 | 3.27 ± 0.086
FIDHHAAIRQPTRYVLI [POP1] | 1.72 ± 0.066 | 2.08 ± 0.073 | 1.77 ± 0.098 | 1.4 ± 0.047
KLSQMILDKIFYGVLDQ [RPN6] | 2.83 ± 0.13 | 2.99 ± 0.12 | 2.92 ± 0.062 | 2.86 ± 0.11
ITLVEPEILRFKVYEPL [RPS16A] | – | 3.25 ± 0.21 | 2.54 ± 0.22 | 2.75 ± 0.074
RKALPKEPKKLLPNSKN [DSN1] | 2.55 ± 0.063 | 2.69 ± 0.071 | 2.69 ± 0.084 | 2.87 ± 0.05
IPRHLQLAIRNDDELNK [HTA1] | 3.02 ± 0.093 | 3.23 ± 0.063 | 3.28 ± 0.059 | 2.89 ± 0.062
VMLLGTPDANLISKPAK [UBP6] | – | 3.28 ± 0.13 | 2.98 ± 0.13 | 3.32 ± 0.12
SELAGDEELEAEQIDVF [PRP8] | 3.08 ± 0.2 | 3.19 ± 0.2 | 3.07 ± 0.16 | 2.75 ± 0.18
RIPFSERKLKFSNRFLP [FAS1] | 1.28 ± 0.084 | 1.17 ± 0.077 | 1.11 ± 0.13 | 1.31 ± 0.084
KKNIQKAKSNQTQREKA [IRR1] | 2.59 ± 0.099 | 2.65 ± 0.11 | 2.77 ± 0.11 | 2.73 ± 0.066
ITHPGKMELVYVSDSDD [SIR4] | 3.24 ± 0.077 | 3.34 ± 0.075 | 3.31 ± 0.085 | 3.25 ± 0.073
LESLKPIDDTMTLLTDS [MTW1] | 3 ± 0.092 | 2.95 ± 0.054 | 3.04 ± 0.058 | 2.98 ± 0.046
NRTMDGKPVSLPLLYNF [FAS1] | 3.08 ± 0.093 | 3.31 ± 0.1 | 2.7 ± 0.072 | 2.93 ± 0.073
STRKTPNGEGSKTWETY [RPS20] | 3.19 ± 0.17 | 3.36 ± 0.16 | 3.07 ± 0.11 | 3.34 ± 0.082
RLFIKPGQKMSLFSHRK [BRN1] | 2.74 ± 0.14 | 3.06 ± 0.11 | 3.07 ± 0.13 | 3.02 ± 0.12
TNSTYNPASATDNMSGR [YJL039C/NUP192] | 2.71 ± 0.058 | 2.73 ± 0.063 | 2.47 ± 0.054 | 2.56 ± 0.052
NKLSGILADEMGLGKTL [ISW2] | 3.1 ± 0.088 | 3.23 ± 0.13 | 3.15 ± 0.049 | 2.68 ± 0.096
EYSPEILQIREEIPSKS [RRP6] | 2.66 ± 0.068 | 2.79 ± 0.08 | 2.54 ± 0.072 | 2.88 ± 0.044
DESSGTSRIDEEKPGLI [SMC4] | 2.89 ± 0.058 | 3.12 ± 0.047 | 2.94 ± 0.05 | 3.08 ± 0.065
GNILDFNLNLPPSSFGR [REC8] | 3.04 ± 0.075 | 3.24 ± 0.15 | 3.03 ± 0.055 | 2.94 ± 0.1
VSNENKKNIDYQNRSTR [RRI1] | 3.13 ± 0.065 | 3.04 ± 0.067 | 3.2 ± 0.062 | 3.25 ± 0.055
MVRLKSRYILFEIIFPP [POP5] | 1.47 ± 0.067 | 1.42 ± 0.054 | 1.52 ± 0.084 | 1.5 ± 0.047

Sequence | protein stability index (doa10∆) | protein stability index (pdr5∆) | protein stability index (san1∆) | protein stability index (ubr1∆)
ERHQKQLNEKLVGRLRK [YCS4] | 3.19 ± 0.12 | 3.18 ± 0.11 | 3.02 ± 0.06 | 3 ± 0.065
NTNGTNASANSTSFSFN [YOR098C/NUP1] | 2.91 ± 0.045 | 3.12 ± 0.045 | 2.99 ± 0.042 | 3.06 ± 0.031
QYYLSVLNQQLPIESQF [BRR2] | 2.28 ± 0.059 | 2.66 ± 0.059 | 2.65 ± 0.055 | 2.42 ± 0.039
IPVEILVRRLSDIKQGY [PRE9] | 2.95 ± 0.08 | 2.72 ± 0.095 | 2.79 ± 0.061 | 2.87 ± 0.06
EEFAYVDPARRQILFKY [MED6] | 2.57 ± 0.085 | 2.19 ± 0.061 | 2.02 ± 0.09 | 2.06 ± 0.053
KALRRKIYINLALGSHN [SSN2] | 3.05 ± 0.21 | 2.76 ± 0.15 | 2.4 ± 0.11 | 3.48 ± 0.15
TCILHGPVAAQFTKVID [FAS1] | 1.73 ± 0.064 | 2.25 ± 0.048 | 1.94 ± 0.081 | 1.98 ± 0.047
LDFQTNKRLCDEIATIQ [RPS17A] | 2.53 ± 0.091 | 2.98 ± 0.071 | 2.96 ± 0.057 | 3.18 ± 0.072
NIEEMARVILYLKNVLF [SIN4] | 2.23 ± 0.075 | 2.31 ± 0.079 | 2.01 ± 0.11 | 2.05 ± 0.037
GGSFGNREEFINKLVKS [RPL7A] | 2.98 ± 0.22 | – | 3.18 ± 0.17 | 2.93 ± 0.077
KRAKEFITTLLKSLYSF [SIN4] | 2.19 ± 0.039 | 1.94 ± 0.05 | 1.83 ± 0.07 | 1.87 ± 0.032
FEQDSHLRYQPDGVVVH [SNF6] | 3.09 ± 0.087 | 3.1 ± 0.078 | 3.07 ± 0.046 | 3.09 ± 0.061
NDNIGANRSRFNNEAPP [SMB1] | 2.64 ± 0.076 | 3.02 ± 0.047 | 2.54 ± 0.065 | 3.01 ± 0.067
SAGRIESNNPSHDASRS [SIR4] | 2.85 ± 0.21 | 2.3 ± 0.11 | – | 2.98 ± 0.17
IVEEDLEPFEASKETAE [FAS2] | 3.42 ± 0.18 | 3.21 ± 0.11 | 3.1 ± 0.087 | 3.25 ± 0.089
LRRGNYAQRIGSGAPVY [HTA1] | 2.19 ± 0.21 | 2.86 ± 0.17 | 2.4 ± 0.26 | –
VATEPLLDILVKGETRI [PRP8] | 2.43 ± 0.057 | 2.41 ± 0.044 | 2.94 ± 0.06 | 1.8 ± 0.032
TFPPEVLARISPELSLQ [RRP43] | 2.32 ± 0.073 | 2.87 ± 0.11 | 2.53 ± 0.081 | 2.67 ± 0.071
DKDSEELDSKTRKILEI [MED4] | 2.98 ± 0.093 | 2.65 ± 0.091 | 3.11 ± 0.061 | 2.98 ± 0.064
SEGISEATREVFGISKT [ITC1] | – | 3.42 ± 0.16 | – | 3.28 ± 0.2
NNRWAENNYKKRLLGTA [RPS23A] | 2.37 ± 0.27 | 2.78 ± 0.16 | – | –
LQEKNSGNLPLNELSAK [RPN13] | 3.19 ± 0.072 | 3.2 ± 0.065 | 3.08 ± 0.038 | 3.17 ± 0.063
PTVHNSTAAAPIAAPKK [PGD1] | 2.81 ± 0.065 | 3.08 ± 0.071 | 2.83 ± 0.052 | 3.072 ± 0.029
ETALEFLEKEKQLTLLR [SMC4] | 3.46 ± 0.1 | 2.65 ± 0.074 | 2.66 ± 0.12 | 2.92 ± 0.058
SVPTNSADAPNPNNVNV [RET1] | 3.24 ± 0.084 | 3.14 ± 0.081 | 3.26 ± 0.049 | 3.23 ± 0.058
ISKKIIGMSLLMRTFLY [SIR3] | 1.79 ± 0.081 | 2.31 ± 0.065 | 1.99 ± 0.083 | 1.75 ± 0.077

Sequence | protein stability index (doa10∆) | protein stability index (pdr5∆) | protein stability index (san1∆) | protein stability index (ubr1∆)
FFLQRKLRSELGYKDTS [BRR2] | 2.11 ± 0.091 | 1.53 ± 0.071 | 1.71 ± 0.12 | 1.35 ± 0.18
YEAPRHGHLGFLPRKRA [RPL3] | 2.99 ± 0.1 | 3.03 ± 0.071 | 2.88 ± 0.05 | 2.72 ± 0.09
RDEIAKNTELSYDFLPL [RPN12] | 1.54 ± 0.062 | 2.23 ± 0.072 | 1.82 ± 0.079 | 2.32 ± 0.05
ILGQTMSIGTGSFKVVK [RPO31] | – | 2.47 ± 0.13 | 1.97 ± 0.12 | 2.99 ± 0.15
NKVHETSSKSSSLSAII [YDL088C/ASM4] | 2.67 ± 0.044 | 2.83 ± 0.053 | 2.81 ± 0.054 | 2.8 ± 0.035
LPTRYTLDVEAFKSVVS [RPL27A] | 1.33 ± 0.031 | 1.55 ± 0.039 | 1.62 ± 0.066 | 1.34 ± 0.031
VIPSYSKWFNLEKIHSI [SWI3] | 1.69 ± 0.045 | 1.6 ± 0.049 | 1.44 ± 0.075 | 1.89 ± 0.038
TFGTKHAADSQNNKPSF [YLR335W/NUP2] | 3.16 ± 0.22 | – | 3.18 ± 0.17 | 3.05 ± 0.2
IELTSYESIATYASVTG [RPN7] | 1.1 ± 0.077 | 1.31 ± 0.068 | 1.11 ± 0.22 | 1.15 ± 0.12
SSKYAYMMNSQSPRGKI [YLR018C/POM34] | 2.83 ± 0.062 | 2.69 ± 0.065 | 2.75 ± 0.044 | 2.78 ± 0.038
AYNKKSTISAREIQTAV [HTB1] | 2.5 ± 0.1 | 3.03 ± 0.089 | 2.98 ± 0.12 | 2.92 ± 0.13
TFHDELNLKFKEKWPSL [YML103C/NUP188] | 3.23 ± 0.095 | 3.57 ± 0.2 | 2.81 ± 0.082 | 3.09 ± 0.098
FAWSKPSTGSNLQQQQQ [YGR119C/NUP57] | 3.02 ± 0.061 | 3.06 ± 0.063 | 3.02 ± 0.05 | 2.95 ± 0.045
TDVLEISKQRTFAVILF [YMR129W/POM152] | 1.93 ± 0.056 | 2.52 ± 0.054 | 2.41 ± 0.058 | 2.21 ± 0.041
FKIHTAKVKKTGEFDFE [RPT4] | 2.3 ± 0.11 | 3.06 ± 0.12 | 2.29 ± 0.17 | 2.81 ± 0.12
FKGHSHIVQDCTLTADG [ASC1] | 1.67 ± 0.066 | 2.04 ± 0.087 | 2.06 ± 0.16 | 1.55 ± 0.065
QNIAQSSNQSAPVETKK [HRT1] | 3.01 ± 0.11 | 2.91 ± 0.14 | 3.47 ± 0.15 | 3.16 ± 0.067
KRKEELVSTLTTGISST [SMC2] | 2.3 ± 0.061 | 2.07 ± 0.052 | 2.61 ± 0.086 | 2.11 ± 0.045
EEEATMTTSAVSPTVGK [YIL149C/MLP2] | 3.25 ± 0.046 | 3.3 ± 0.037 | 3.229 ± 0.029 | 3.2 ± 0.035
CNDEDKDLETLYNKIWT [ECM29] | 3.04 ± 0.081 | 3.06 ± 0.065 | 2.44 ± 0.074 | 2.88 ± 0.037
PKELGGLGMISASHILI [PRP8] | 2.36 ± 0.072 | 2.67 ± 0.053 | 2.14 ± 0.084 | 2.41 ± 0.047
TFEKHDRVEDICERIFE [RRI2] | 2.68 ± 0.12 | 3.05 ± 0.16 | 3.15 ± 0.23 | –
QRETYDSNESDDDVTPS [YLR335W/NUP2] | 1.99 ± 0.1 | 2.43 ± 0.2 | 2.37 ± 0.15 | 2.65 ± 0.18
NGNLEEEFAYVDPARRQ [MED6] | 3.62 ± 0.21 | 3.44 ± 0.12 | 3.71 ± 0.1 | 2.74 ± 0.085
ILKKSLMTSHTKGDTSK [RTT102] | 2.6 ± 0.11 | 3.05 ± 0.085 | 2.81 ± 0.085 | 3.05 ± 0.13
